US20240261333A1 (published 2024)

Assays:
Assay in all cases: co-IP with anti-FLAG, mass spectrometry; N-FLAG B3GNT2
[1] = molecular target: T1, YBX3 (UniProt P16989 2-372, limits assumed)
T1 construct: Endogenous protein found in the co-IP by mass spectrometry; also called XP_016875611.1 (+1)
Method: (§1) Cells were plated in 10-cm cell culture dishes and grown to 60-80% confluency. For each condition, two biological replicates were harvested for co-IP. Cells were washed with PBS and 4 mL of lysis buffer (20 mM HEPES, 1% Triton X-100, 150 mM NaCl, 1 mM EDTA, and 10% glycerol) containing protease inhibitor cocktail was added. Cells were scraped and lysate was incubated at 4° C. under rotary agitation for 1 h. Lysate was centrifuged at 14,000×g for 10 min at 4° C. Supernatant was transferred to a new tube and an aliquot was taken as the input. […] For Western blots, 10 μg/mL Chicken Anti-FLAG (Aves labs ET-DY100) and IgY control (R&D Systems AB-101-C) antibodies were biotinylated (Thermo Fisher Scientific 90407) and added to the respective conditions. Lysates with antibodies were incubated at 4° C. under rotary agitation overnight. For each mL of lysate, 50 μL of Pierce Protein A/G Magnetic Beads (Mass spectrometry; Thermo Fisher Scientific 88803) or Pierce Streptavidin Magnetic Beads (Western blot; Thermo Fisher Scientific 88817) was washed twice with lysis buffer. Lysates with antibodies were added to the beads and incubated at 4° C. under rotary agitation for 4 h. Beads were washed with lysis buffer 3 times and resuspended in lysis buffer for storage.
(§2) Magnetic beads were resuspended in 100 mM Tris pH 7.8, reduced, alkylated and digested with trypsin at 37° ° C. overnight. This solution was subjected to solid phase extraction to concentrate the peptides and remove unwanted reagents followed by injection onto a Shimadzu HPLC with fraction collector. Eight fractions were collected and after concentration were injected on a Waters NanoAcquity HPLC equipped with a self-packed Aeris 3 μm C18 analytical column 0.075 mm by 20 cm, (Phenomenex). Peptides were eluted using standard reverse-phase gradients. The effluent from the column was analyzed using a Thermo Orbitrap Elite mass spectrometer (nanospray configuration) operated in a data dependent manner for 54 minutes. The resulting fragmentation spectra were correlated against the known database using Proteome Discover 1.4 (Thermo Fisher Scientific).

[2] = molecular target: T2, RPLP2 (UniProt P05387 1-115)
T2 construct: Endogenous protein found in the co-IP by mass spectrometry; also called NP_000995.1
Method: as §1, §2

[3] = molecular target: T3, HBA1 (UniProt P69905 2-142)
T3 construct: Protein found in the co-IP by mass spectrometry; also called NP_000549.1
Method: as §1, §2

[4] = molecular target: RPL36A (UniProt P83881 1-106)
Method: as §1, §2

[5] = molecular target: T4, CTSD (UniProt P07339 65-412, limits assumed)
T4 construct: Endogenous protein found in the co-IP by mass spectrometry; also called NP_001900.1
Method: as §1, §2

[6] = molecular target: SLIRP (UniProt Q9GZT3 1-109)
Method: as §1, §2

[7] = molecular target: T5, HNRNPF (UniProt P52597 2-415)
T5 construct: Endogenous protein found in the co-IP by mass spectrometry; also called NP_001091676.1
T5 sequence (looked up): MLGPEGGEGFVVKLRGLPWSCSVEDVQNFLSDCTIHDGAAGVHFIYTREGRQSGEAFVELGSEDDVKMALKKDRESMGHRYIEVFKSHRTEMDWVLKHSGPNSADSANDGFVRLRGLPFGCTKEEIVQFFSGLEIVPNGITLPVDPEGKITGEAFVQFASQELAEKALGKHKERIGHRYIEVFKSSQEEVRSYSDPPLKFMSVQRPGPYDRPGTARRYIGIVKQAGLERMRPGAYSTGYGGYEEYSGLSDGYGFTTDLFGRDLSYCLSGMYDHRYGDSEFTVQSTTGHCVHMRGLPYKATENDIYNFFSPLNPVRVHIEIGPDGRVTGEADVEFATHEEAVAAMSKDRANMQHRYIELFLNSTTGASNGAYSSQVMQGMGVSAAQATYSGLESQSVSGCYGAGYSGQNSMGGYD
Method: as §1, §2

[8] = molecular target: RPL31 (UniProt P62899 1-125)
Method: as §1, §2

[9] = molecular target: RPL21 (UniProt P46778 2-160)
Method: as §1, §2

[10] = molecular target: T6, TPI1 (UniProt P60174 2-249)
T6 construct: Endogenous protein found in the co-IP by mass spectrometry; also called NP_000356.1 (+2)
Method: as §1, §2

[11] = molecular target: RPL35A (UniProt P18077 1-110)
Method: as §1, §2

[12] = molecular target: RPS11 (UniProt P62280 2-158)
Method: as §1, §2

[13] = molecular target: RPL36 (UniProt Q9Y3U8 2-105)
Method: as §1, §2

[14] = molecular target: T7, RCC2 (UniProt Q9P258 1-522)
T7 construct: Endogenous protein found in the co-IP by mass spectrometry; also called NP_061185.1
Method: as §1, §2

[15] = molecular target: T8, LYZ (UniProt P61626 19-148)
T8 construct: Protein found in the co-IP by mass spectrometry; also called NP_000230.1
T8 sequence (looked up): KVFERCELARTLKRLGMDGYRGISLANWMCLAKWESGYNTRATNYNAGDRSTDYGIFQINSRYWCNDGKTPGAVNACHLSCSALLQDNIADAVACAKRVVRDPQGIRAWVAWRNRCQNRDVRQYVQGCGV
Method: as §1, §2

[16] = molecular target: RPS15A (UniProt P62244 2-130)
Method: as §1, §2

T4 sequence (P07339 65-412 limits assumed): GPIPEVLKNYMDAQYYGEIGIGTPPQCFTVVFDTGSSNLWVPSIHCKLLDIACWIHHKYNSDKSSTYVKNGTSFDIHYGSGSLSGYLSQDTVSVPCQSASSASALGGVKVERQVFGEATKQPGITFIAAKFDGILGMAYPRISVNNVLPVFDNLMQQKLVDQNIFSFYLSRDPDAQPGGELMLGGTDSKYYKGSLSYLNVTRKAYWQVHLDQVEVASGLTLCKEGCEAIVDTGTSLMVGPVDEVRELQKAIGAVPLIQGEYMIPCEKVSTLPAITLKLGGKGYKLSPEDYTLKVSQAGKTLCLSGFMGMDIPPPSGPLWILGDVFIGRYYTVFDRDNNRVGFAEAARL
T7 sequence (Q9P258 whole entry): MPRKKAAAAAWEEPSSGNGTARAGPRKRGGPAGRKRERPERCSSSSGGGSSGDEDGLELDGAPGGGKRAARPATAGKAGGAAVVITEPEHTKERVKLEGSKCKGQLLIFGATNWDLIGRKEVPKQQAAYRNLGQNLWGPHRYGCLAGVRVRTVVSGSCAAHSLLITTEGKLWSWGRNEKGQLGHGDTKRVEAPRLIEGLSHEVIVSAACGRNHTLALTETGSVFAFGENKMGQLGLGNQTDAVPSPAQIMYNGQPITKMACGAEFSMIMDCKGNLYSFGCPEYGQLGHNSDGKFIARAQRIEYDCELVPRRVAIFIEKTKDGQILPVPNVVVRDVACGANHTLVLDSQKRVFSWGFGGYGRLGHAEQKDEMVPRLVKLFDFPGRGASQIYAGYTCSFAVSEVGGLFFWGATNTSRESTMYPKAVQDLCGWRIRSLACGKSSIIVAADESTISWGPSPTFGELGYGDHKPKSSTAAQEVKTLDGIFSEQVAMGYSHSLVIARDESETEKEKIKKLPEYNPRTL
T1 sequence (P16989 2-372 limits assumed): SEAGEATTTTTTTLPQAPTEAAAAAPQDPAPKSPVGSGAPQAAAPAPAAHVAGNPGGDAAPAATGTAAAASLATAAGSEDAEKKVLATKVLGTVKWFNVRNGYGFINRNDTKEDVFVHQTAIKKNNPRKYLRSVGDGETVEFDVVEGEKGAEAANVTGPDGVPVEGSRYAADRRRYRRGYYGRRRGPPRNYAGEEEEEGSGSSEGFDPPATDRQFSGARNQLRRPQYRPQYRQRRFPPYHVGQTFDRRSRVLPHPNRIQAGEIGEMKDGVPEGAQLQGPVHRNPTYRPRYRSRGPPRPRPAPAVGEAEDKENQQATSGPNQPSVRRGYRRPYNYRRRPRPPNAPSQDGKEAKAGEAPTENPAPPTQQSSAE
T2 sequence (P05387 whole entry): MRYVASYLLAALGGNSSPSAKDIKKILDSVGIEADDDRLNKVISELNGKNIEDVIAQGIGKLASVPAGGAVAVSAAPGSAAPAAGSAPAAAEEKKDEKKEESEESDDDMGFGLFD
T3 sequence (P69905 2-142 limits assumed): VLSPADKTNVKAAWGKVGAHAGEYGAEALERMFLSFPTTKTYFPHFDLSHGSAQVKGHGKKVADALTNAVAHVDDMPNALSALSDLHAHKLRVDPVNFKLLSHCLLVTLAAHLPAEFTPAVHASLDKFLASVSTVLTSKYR
T6 sequence (P60174 2-249 limits assumed): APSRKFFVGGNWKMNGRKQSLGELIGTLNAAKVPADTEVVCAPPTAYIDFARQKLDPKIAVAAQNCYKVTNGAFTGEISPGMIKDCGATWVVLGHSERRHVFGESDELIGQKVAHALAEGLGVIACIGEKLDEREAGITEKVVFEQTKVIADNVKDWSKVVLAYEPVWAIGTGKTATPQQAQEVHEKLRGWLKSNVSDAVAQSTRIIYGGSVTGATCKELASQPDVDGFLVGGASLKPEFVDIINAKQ

B1: N-terminal FLAG tagged B3GNT2 (enzyme, human, UniProt Q9NY97 1-397, looked up)
chain: MSVGRRRIKLLGILMMANVFIYFIMEVSKSSSQEKNGKGEVIIPKEKFWKISTPPEAYWNREQEKLNRQYNPILSMLTNQTGEAGRLSNISHLNYCEPDLRVTSVVTGFNNLPDRFKDFLLYLRCRNYSLLIDQPDKCAKKPFLLLAIKSLTPHFARRQAIRESWGQESNAGNQTVVRVFLLGQTPPEDNHPDLSDMLKFESEKHQDILMWNYRDTFFNLSLKEVLFLRWVSTSCPDTEFVFKGDDDVFVNTHHILNYLNSLSKTKAKDLFIGDVIHNAGPHRDKKLKYYIPEVVYSGLYPPYAGGGGFLYSGHLALRLYHITDQVHLYPIDDVYTGMCLQKLGLVPEKHKGFRTFDIEEKNKNNICSYVDLMLVHSRKPQEMIDIWSQLQSAHLKC
notes: FLAG-tagged ORF overexpressed in cells; bait of the anti-FLAG co-IP; also called N-FLAG B3GNT2; N-term FLAG; not shown: FLAG tag at the N-terminus
- co-IP mass spectrometry count [1]: 0
- co-IP mass spectrometry count [2]: 6
- co-IP mass spectrometry count [3]: 3
- co-IP mass spectrometry count [4]: 3
- co-IP mass spectrometry count [5]: 3
- co-IP mass spectrometry count [6]: 0
- co-IP mass spectrometry count [7]: 0
- co-IP mass spectrometry count [8]: 0
- co-IP mass spectrometry count [9]: 8
- co-IP mass spectrometry count [10]: 3
- co-IP mass spectrometry count [11]: 0
- co-IP mass spectrometry count [12]: 13
- co-IP mass spectrometry count [13]: 0
- co-IP mass spectrometry count [14]: 0
- co-IP mass spectrometry count [15]: 3
- co-IP mass spectrometry count [16]: 3
